± gives the uncertainty stated by the source.
Assay: self-splicing fitness, log relative to wild type (ln ratio); higher = more splicing; Tetrahymena group I intron in knt gene, E. coli kanamycin selection, DiMSum; sequences stand for … in CUCUCU…GGAGGGAAAAGUUAUCAGGCAUGCACCUGGUAGCUAGUCUUUAAACCAAUAGAUUGCAUCGGUUUAAAAGGCAAGACCGUCAAAUUGCGGGAAAGGGGUCAACAGCCGUUCAGUACCAAGUCUCAGGGGAAACUUUGAGAUGGCCUUGCAAAGGGUAUGGUAAUAAGCUGACGGACAUGGUCCUAACCACGCAGCCAAGUCCUAAGUCAACAGAUCUUCUGUUGAUAUGGAUGCAGUUCACAGACUAAAUGUCGGUCGGGGAAGAUGUAUUCUUCUCAUAAGAUAUAGUCGGACCUCUCCUUAAUGGGAGCUAGCGGAUGAAGUGAUGCAACACUGGAGCCGCUGGGAACUAAUUUGUAUGCGAAAGUAUAUUGAUUAGUUUUGGAGUACUCGUGGUCG
In short: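 Colonies from six replicate transformations of E. coli BL21(DE3) were pooled and amplicon-sequenced on an Illumina HiSeq 2500. The library placed an intron with all eight P1ex-region nucleotides randomised inside the knt kanamycin-resistance gene on pET-22b(+), and cells grew overnight at 37°C or 30°C on LB agar with or without 25 μg/mL kanamycin (plus 100 μg/mL carbenicillin, 50 μM IPTG, 0.2% rhamnose). Fitness is the DiMSum error-weighted combination of wild-type-normalised replicate fold changes, kanamycin versus none.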

Sequence | self-splicing fitness (ln) (30 °C) | self-splicing fitness (ln) (37 °C)
UUGUAGCAAUAUUACGGGGA | -1.98 ± 0.26 | -0.346 ± 0.17
GCGAAGCAAUAUUACGUGGC | -3.33 ± 0.39 | -2.35 ± 0.44
UUUUAGCAAUAUUACGGCGG | -0.446 ± 0.16 | -0.137 ± 0.15
CACUAGCAAUAUUACGACCG | 0.413 ± 0.1 | 0.573 ± 0.12
UCCAAGCAAUAUUACGAGAG | -2.32 ± 0.12 | -1.85 ± 0.14
UGCGAGCAAUAUUACGUGCA | -2.46 ± 0.2 | -1.35 ± 0.21
UAAUAGCAAUAUUACGCUGU | -3.69 ± 0.28 | -0.659 ± 0.17
GAAAAGCAAUAUUACGUCAC | -2.2 ± 0.19 | -1.64 ± 0.31
GCAAAGCAAUAUUACGCGUC | -2.92 ± 0.28 | -1.94 ± 0.32
UCUUAGCAAUAUUACGUACG | -1.58 ± 0.083 | -0.522 ± 0.088
AGUAAGCAAUAUUACGCAGA | -3.22 ± 0.36 | -2.67 ± 0.29
CAAUAGCAAUAUUACGGUAU | -3.15 ± 0.15 | -2.42 ± 0.21
AACCAGCAAUAUUACGGCAC | -0.615 ± 0.055 | -0.257 ± 0.079
GCUGAGCAAUAUUACGCCAC | -4.02 ± 0.27 | -2.27 ± 0.26
ACAUAGCAAUAUUACGCAAA | -3.29 ± 0.16 | -2.25 ± 0.14
CCCCAGCAAUAUUACGGGGC | -2.95 ± 0.1 | -3.43 ± 0.17
GGCUAGCAAUAUUACGAUGA | -0.793 ± 0.15 | -0.54 ± 0.16
AUCUAGCAAUAUUACGUUCG | -1.28 ± 0.091 | -0.393 ± 0.11
GAUAAGCAAUAUUACGGCUG | -0.569 ± 0.067 | 0.0614 ± 0.1
UAGAAGCAAUAUUACGUAUG | -1.01 ± 0.07 | -1.14 ± 0.11
AGUAAGCAAUAUUACGAUAG | -3.75 ± 0.33 | -2.86 ± 0.31
GUCCAGCAAUAUUACGUUGG | -3.27 ± 0.15 | -2.13 ± 0.17
GGUUAGCAAUAUUACGUGAG | -0.894 ± 0.098 | -0.197 ± 0.12
AUAUAGCAAUAUUACGACAC | -1.5 ± 0.23 | -0.312 ± 0.29

Sequence | self-splicing fitness (ln) (30 °C) | self-splicing fitness (ln) (37 °C)
AAUUAGCAAUAUUACGGUCU | -0.43 ± 0.085 | 0.202 ± 0.099
ACGAAGCAAUAUUACGGCUU | -3.97 ± 0.24 | -2.76 ± 0.22
GGAUAGCAAUAUUACGCUGA | -1.13 ± 0.13 | -1.19 ± 0.14
GGGUAGCAAUAUUACGCAAG | -1.59 ± 0.11 | -0.847 ± 0.16
GUUAAGCAAUAUUACGUCUA | -0.524 ± 0.1 | -0.261 ± 0.099
CCAUAGCAAUAUUACGCAAA | -1.93 ± 0.21 | -2.15 ± 0.3
UCAAAGCAAUAUUACGGACA | -0.451 ± 0.13 | 0.0835 ± 0.14
CUGUAGCAAUAUUACGGGAC | -1.04 ± 0.18 | -0.365 ± 0.21
AUGCAGCAAUAUUACGGCUA | 0.452 ± 0.11 | 0.366 ± 0.12
GAACAGCAAUAUUACGAGAU | -3.55 ± 0.12 | -1.4 ± 0.09
GUAAAGCAAUAUUACGACUG | -2.11 ± 0.2 | -1.48 ± 0.28
GCACAGCAAUAUUACGAUUU | -0.869 ± 0.042 | -0.0519 ± 0.058
AUAAAGCAAUAUUACGUAUC | -3.77 ± 0.18 | -2.02 ± 0.19
ACACAGCAAUAUUACGGUGC | -3.91 ± 0.16 | -2.61 ± 0.14
AAGCAGCAAUAUUACGACGG | -2.19 ± 0.088 | -1.17 ± 0.09
AAGUAGCAAUAUUACGUGAA | -2.36 ± 0.12 | -1.78 ± 0.13
AGUUAGCAAUAUUACGAACA | -0.687 ± 0.12 | 0.168 ± 0.17
CUACAGCAAUAUUACGUACU | -3.15 ± 0.14 | -1.05 ± 0.15
UCAAAGCAAUAUUACGCCAU | -3.37 ± 0.24 | -2.27 ± 0.19
AGUGAGCAAUAUUACGACGC | -1.01 ± 0.2 | -0.737 ± 0.29
GUGUAGCAAUAUUACGGGGG | -3.23 ± 0.41 | -2.07 ± 0.43
CUCGAGCAAUAUUACGUAAU |  | -1.42 ± 0.29
UUUCAGCAAUAUUACGGACA | -0.569 ± 0.09 | -0.204 ± 0.1
